Measurements reported in patent publication US20190077875A1 (MorphoSys, published 2019).

Target: T1, MOR202 (anti-CD38 antibody)
T1 construct: also called MOR03087
Assay: serum immunofixation electrophoresis (IFE) after pre-incubation of MOR202 (1200 µg/mL, saline or serum) with MOR09292-hAlb; anti-IgG or anti-lambda staining
Protocol: MOR202 at a constant concentration of 1200 μg/mL in saline (Lane 2-3) or serum (Lane 4-13) was pre-incubated with or without its idiotypic antibody MOR09292-hAlb at different ratios and the prepared samples were analyzed via IFE using anti-IgG staining (Lane 2-8) or anti-lambda staining (Lane 9-13). (Lane 2=MOR202; Lane 3=MOR202+MOR09292-hAlb at 2400 μg/mL; Lane 4=MOR202; Lane 5=MOR202+MOR09292-hAlb at 1200 μg/mL; Lane 6=MOR202+MOR09292-hAlb at 1800 μg/mL; Lane 7=MOR202+MOR09292-hAlb at 2400 μg/mL; Lane 8=MOR202+MOR09292-hAlb at 3600 μg/mL; Lane 9=MOR202; Lane 10=MOR202+MOR09292-hAlb at 1200 μg/mL; Lane 11=MOR202+MOR09292-hAlb at 1800 μg/mL; Lane 12=MOR202+MOR09292-hAlb at 2400 μg/mL; Lane 13=MOR202+MOR09292-hAlb at 3600 μg/mL; Lane 1=human serum from a healthy donor stained for total protein to evaluate general background signaling).
In order to differentiate between MOR202 related assay signals in IFE vs. endogenous M-protein spikes a method was tested pre-incubating a MOR202 containing sample with an MOR202 specific anti-idiotypic antibody (MOR09292). […] For evaluating if the migration distance is large enough to be detected samples containing MOR202 in saline were prepared and pre-incubated with or without MOR09292. […] Afterwards, the samples were analyzed and IFE gels were stained with anti-IgG or anti-lambda antisera. […]

T1 sequence (VH, as listed by the source, chain 1 of 2): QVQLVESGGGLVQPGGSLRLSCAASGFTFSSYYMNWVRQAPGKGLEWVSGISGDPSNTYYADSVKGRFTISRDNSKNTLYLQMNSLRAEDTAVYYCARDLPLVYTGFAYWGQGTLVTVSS
T1 sequence (VL, as listed by the source, chain 2 of 2): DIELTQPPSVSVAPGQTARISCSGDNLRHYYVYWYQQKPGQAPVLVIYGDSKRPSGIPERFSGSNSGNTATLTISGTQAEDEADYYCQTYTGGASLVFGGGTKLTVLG

B1: MOR09292-human albumin fusion (MOR09292-Fab fragment genetically fused to human albumin) (Fab)
heavy: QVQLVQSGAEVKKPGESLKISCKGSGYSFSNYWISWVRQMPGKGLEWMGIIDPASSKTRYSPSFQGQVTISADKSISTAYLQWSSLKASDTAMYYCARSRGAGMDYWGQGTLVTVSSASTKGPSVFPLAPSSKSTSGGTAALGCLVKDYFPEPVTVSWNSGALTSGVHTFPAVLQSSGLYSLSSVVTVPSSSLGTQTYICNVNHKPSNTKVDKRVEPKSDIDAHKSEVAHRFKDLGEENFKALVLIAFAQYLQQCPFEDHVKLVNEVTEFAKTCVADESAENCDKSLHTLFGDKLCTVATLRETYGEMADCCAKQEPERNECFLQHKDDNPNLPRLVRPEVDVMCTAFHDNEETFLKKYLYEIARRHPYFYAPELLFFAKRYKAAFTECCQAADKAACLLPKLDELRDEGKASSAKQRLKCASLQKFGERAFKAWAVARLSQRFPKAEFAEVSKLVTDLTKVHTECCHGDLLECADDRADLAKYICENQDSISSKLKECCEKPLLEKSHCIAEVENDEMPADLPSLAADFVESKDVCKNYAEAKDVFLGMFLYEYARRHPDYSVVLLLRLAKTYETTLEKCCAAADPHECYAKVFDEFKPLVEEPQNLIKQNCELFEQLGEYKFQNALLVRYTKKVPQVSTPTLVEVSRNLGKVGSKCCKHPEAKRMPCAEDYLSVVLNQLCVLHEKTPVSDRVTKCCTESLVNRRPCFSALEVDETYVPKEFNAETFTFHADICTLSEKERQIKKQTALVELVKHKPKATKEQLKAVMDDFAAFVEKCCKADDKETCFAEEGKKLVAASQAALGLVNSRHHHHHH
light: DIVLTQPPSVSGAPGQRVTISCTGSSSNIGAGYDVHWYQQLPGTAPKLLIYADNNRPSGVPDRFSGSKSGTSASLAITGLQSEDEADYYCGSYDESSNSMVFGGGTKLTVLGQPKAAPSVTLFPPSSEELQANKATLVCLISDFYPGAVTVAWKADSSPVKAGVETTTPSKQSNNKYAASSYLSLTPEQWKSHRSYSCQVTHEGSTVEKTVAPTECS
notes: Anti-idiotypic Fab to MOR202, fused to human albumin; also called MOR09292-hAlb; MOR09292-huAlb
- binding result: binds
